Biological target: T1, Recombinant FGF-20 (rat, UniProt Q9EST9 1-212)
T1 construct: Immobilised on a CM5 sensor chip in the assay; also called recombinant rat FGF-20; rFGF-20
Test: SPR (BIACORE 2000), FGF-20 immobilised on CM5, receptor extracellular domain as analyte

T1 sequence (Q9EST9 other isoform, or with tags, fused parts or gaps limits assumed): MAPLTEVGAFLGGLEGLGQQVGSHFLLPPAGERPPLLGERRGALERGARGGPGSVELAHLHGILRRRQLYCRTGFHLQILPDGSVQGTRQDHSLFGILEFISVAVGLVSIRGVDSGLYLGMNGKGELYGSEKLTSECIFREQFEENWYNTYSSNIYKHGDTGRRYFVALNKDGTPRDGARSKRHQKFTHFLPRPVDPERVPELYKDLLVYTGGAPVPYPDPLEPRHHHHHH

B1: recombinant extracellular domain of FGFR-3c (receptor)
chain: ESLGTEQRVVGRAAEVPGPEPGQQEQLVFGSGDAVELSCPPPGGGPMGPTVWVKDGTGLVPSERVLVGPQRLQVLNASHEDSGAYSCRQRLTQRVLCHFSVRVTDAPSSGDDEDGEDEAEDTGVDTGAPYWTRPERMDKKLLAVPAANTVRFRCPAAGNPTPSISWLKNGREFRGEHRIGGIKLRHQQWSLVMESVVPSDRGNYTCVVENKFGSIRQTYTLDVLERSPHRPILQAGLPANQTAVLGSDVEFHCKVYSDAQPHIQWLKHVEVNGSKVGPDGTPYVTVLKTAGANTTDKELEVLSLHNVTFEDAGEYTCLAGNSIGFSHHSAWLVVLPAEEELVEADEAGSVYAG
  Kd: 217 nM
  koff: 0.0247 s⁻¹
  kon: 115000 M⁻¹ s⁻¹

— US6797695
